# Data as given in the nanobody polyreactivity screen of Harvey et al. (2022).
# Experiment: yeast display, Sf9 membrane polyspecificity reagent, FACS + sequencing; frameworks hold sequencing errors
# In short: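 Sorting gates, low and high (top ~1%), were placed on anti-HA fluorescence to track expression and on streptavidin fluorescence to track reagent binding. A clone's polyreactivity label is taken from the gate it came out of. The reagent was 10% biotinylated, detergent-solubilized Sf9 membrane, applied for 1 hour at 4 °C to galactose-induced yeast display cells.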
row,Sequence,polyreactivity (PSR sort gate)
1,QVQHVESGGGLVQAGGSLRLSCAASGYTFYIYAMGWYRQAHGKERELVATISSSGGGTYYADSVKGRFTISRDNAKNTVYLQMNSLTPEDTAVYYCNADGWYWQAQGYDYWGQGTQVTVSS,low polyreactivity
2,QVQHVESGGGLVQAGGSLRLSCAASVIIFLWYAMGRYRQAPGKERELGAAISRSGSSTYYADSVKGRFTISRDNAKNTVYLQMNSLKPEDTAVYYCAAAYYSKRSCRFDYWGQGTQVTVSS,high polyreactivity
3,QVQHVESGGGLVQAGGSLRLSCAASVSIFGWKAMGWYRKAPGKERQLVAVITCAGSTNYADSVKGRFTISRDNAKNTVYLQMNSLKPEDTAVYYCAAENLGQGGNFAYFGYYYWGQGTQVTVSS,low polyreactivity
4,QVQHVESGGGLVQAGGSLRLSCAAYGRTLDVNAMGWYRQAPGKERELVAAIDWGVGTTYYADSVKGRFTISRDNAKNTVYLQMNSLKPEDTAVYYCAVEVYYSVYGYPVQYYYWGQGTQVTVSS,high polyreactivity
5,QVQHVESGGGLVQAGGSLRLSCASSGRIFPTNAMGWSRQAPGKDRELVASITRSGSTYYADSVKGRFTISRDNAKNTVYLQMNSLKPEDTAVYNCAAYAYIFMDWGGYPYYLYEYEYLGQGTQVTVSS,low polyreactivity
6,QVQHVESGGGLVQAGGSLRLSCDASGSIFRVYAMGWDRQAPGKERELVAAISRDGSTNYADSVKGRFTISRDNAKNTVYLQMNSLKPEDTAVYYCAAYRTYRGARMNYWGQGTQVTVSS,low polyreactivity
7,QVQHVESGGGLVQAGGSLRLSGAASGRTFYKNTMGWSRQAPGKERELVAGISQRGGRTYYADSVKGRFTISRDYAKNTVYLQMNSLNPEDTAVYYCAVRSYVHGFDYWGQGTQVTVSS,high polyreactivity
8,QVQHVESGGGLVQAGGSLRLSSAASGITFPVYAMGWYRPTPGKERELVAAITFSGSNTYYADSVKGRFTISRDNAKNTVYLQMNSLKPEDTAVYYCNAETGGVYFNYYYVGEYYYWGQGTQVTVSS,low polyreactivity
9,QVQHVESGGGLVQAGGSLRLTCAASGRTFGVYAMGWYRQAPGKEREFVAVISWSDDSTYYADSVKGRFTISRDYAKNTVNLQMNSLKPEDTAVYYCNADDYLVYSGSHYGYWGQGTQVTVSS,low polyreactivity
10,QVQHVESGGGLVQAGGSLRLTCAATGFTFEKNAMGWYRQAPGKERELVAAISRGGSTYADSVKGRFTISRDNAKNTVYLQMNSLKPEDTAVYYCAADTVYIFSSAINGEFVFWGQGTQVTVSS,low polyreactivity
11,QVQHVESGGGLVQARGSLRLRCAASGFIFRANAMGWYRHAPGKERELVATISRSGGSTSYADSVKGLFTISRDNAKNTVYLQMNSLKPEDSAVYYCAARKYTLRRKSRYGYWGQGTQVTVSS,high polyreactivity
12,QVQHVESGGGLVQARGSLRLSCAASGFIIWGYAMGWYRQAPGKERELVAAISSSGGSTYYADSVKGRFTISRDNAKNTVYLQMNSLKPEDTAVYYCAAVRYQAYSGDGGYWGQGTQVTVSS,low polyreactivity
13,QVQHVESGGGLVQSGGSLRLSCAASGRNFKFNPMGWYRQPPGKERELVAGITWTGSTTSYADSVKGRFTISRDNATNPVYLQMNSLKPEDTEVYYCDGDKIGFWYHGFYYRGQGTQVTVSS,low polyreactivity
14,QVQHVESGGRLVQAGGSLRLSCAASGSIFGRYVMGWYRQAPGKESELVAAISGSGGSTNYADSVKGRFTISRDNAKNTVYLQMNSLKPEDTAVYYCATLRWFWYTRSTRIGDYWGQGTQVTVSS,high polyreactivity
15,QVQHVESGGRLVQAGGSLRLSCAASGSNWIYAMGWYRQAPGKERELVAAISVSGDRTYYADSVKGRFTISRDNAKNTVYLQMNSLKPEDTAVYYSATPPYPGRDYWGQGTEVTVSS,high polyreactivity
16,QVQHVESGGRLVQAGGSLRLSCAASGSTLDVYAMGWYRQAPGKERELVAAISWSVGSTYYADSVKGRFKISRDNAKNTVYLQMNRLKPEDTAVYYCAAEPYEYAYFGYDYWGQGTQVTVSS,high polyreactivity
17,QVQHVESGGSLVQAGGSLRLSCAASGRTFRRYAMGWFRHAPGKAWELVAAIRSDGATYYADSVKGRFTISRDNAKNTVYLQMNSLKPEDTAVYYCNAVYVSSVTGHVDWGQGTQVTVSS,low polyreactivity
18,QVQHVESGGVLVQAGGSLRLSCAASGRTFISNVMGWYRPAPGKERELVAGITGGGNTYYADSVKGRFTISRDNAKNTVYLQMNSLKPEDTAVYYCAVRYPSYGLSYVRYGYWGQGTQLTVSS,high polyreactivity
19,QVQHVESGLGLVQAGCSLRLSCAASGITFYPYTMGWYRQAPGKERELVAAIDYNGDSTYYADSVKGRFTISRDNAKNTVYLQFNSLKPEDTAVYYCAADVWTLDPDEYDYWGQGTQVTVSS,low polyreactivity
20,QVQHVESGRGLVQAGGILRLTCAASGRTFEYYAMGWYRQAPGKERELVAAITYSGDSTYYADSVKGRFTISRDNAKNTFYLQMNSLKPEDTAVYYCAADWSSLKDDYWGQGTQVTVSS,low polyreactivity

row,Sequence,polyreactivity (PSR sort gate)
1,QVQHVESGRGLVQAGGSLRLICAASGRIFDLNDMGRSRQAPGKERELVAAITSAGSTYYADSVKGRFTISRDNAKNTVYLQMNSLKPEDTAVYYCNKVARGVVRPGRVGSDYWAQGTQVTVSS,high polyreactivity
2,QVQHVESGRGLVQAGGSLRLSCAASGLTFSRYAMGWYRQAPGKERELVAAITRSGGSTYYADSVKGRFTISRDNEKNTVYLQMKSLKPEDSAVYYCARTFTDRYGHWYGYWGQGTQVTVSS,high polyreactivity
3,QVQHVESGVGLVQAGGSLRLSCAASGSTFDRYAMRWYRQAPGKERELVAAISWSAGRTYYADSVKGRFTISRDNAKNTVYLQMNSLKPEDTAVYYCAADQIVSGTYDYYWGQGTQVTVSS,low polyreactivity
4,QVQHVESGVGLVQAGGSLRLSCAASGSTFSWYTMGWYRQAPGKERELVAAISWSGGRTYYADSVKGRFTISRDNAKNTVYLQMNSLKPEDTAVYYCAAYDYWYSLGDYQFYYWGQGTQVTVSS,low polyreactivity
5,QVQHVESRGGLVQAGGSLRLSCAASGLILSGYTMGWYRQAPGKERELVAAISRSGGSTYYADSVKGRFTISRDNAKNTVYLQMNSLKPEDTAVYYCAKVPIYRYGVWAMNYWGQGTLVTVSS,high polyreactivity
6,QVQHVESRGGLVQAGGSLRLSCAASGRTFSRNAMGRYRQAPGKERELVATITSDGSTNYADSVKGRFTISRDNAKNTVYLQMNSLKPEDTAVYYCAAGEQSSIIGAHDYWGQGTQVTVSS,low polyreactivity
7,QVQHVESRGGLVQAGGSLRLSCAASGSTFGVYAMGRYRQAPGKERELDASISSGGRTKYADSVKGRFTISRDNAKNTVYLQMNSLKPEDTAVYFCAARIRYLGVRDNDNYYCGQGTQVTVSS,low polyreactivity
8,QVQHVESVGGLVQAGGSLRLSCAASGRIFNYNSMGWYRLAPVKERELVAVITSVDSTNYADSVKGRFTISRDNAKNTVYLQMNSLKQEDTAVYYCASEYYSIRYGPHSIEVYCMEYWGQGTQVTVSS,low polyreactivity
9,QVQHVESVGGLVQAGGSLRLSCAASGSIFSNNVMGWYRQAPGKERELVAAITVSGGRTYYADSVKGRFTISRDNAKNSVYLQMNSLKPEDTAVYYCATGVWKYSPDGDVGDQLSGYDYWGQGTQVTVSS,low polyreactivity
10,QVQHVESVGGLVQAGGSLRLSSATSGSIFITNAMGCYRQPPGKESELVAAIRDSGDRTYYADSVKGRFTISRDNGKNNVSLQMNSLKPEDTAVYYCNARCQEPLNYDYWGQGTQGTVSS,low polyreactivity
11,QVQHVESVVGLVQAGVSLPLSGASSGYIFLENAMGWYRQATGKERELDAAITVSGGGTYYADSVKGRFTISRDNAKITVYLQMNSLKPEDTAVYYCAADEDNPWLWFYYWGLGTQVTVSS,low polyreactivity
12,QVQHVKSGGGLVQAGGSLRLSCAASGSIFGYNTMGWYRQAPGKERELVATITYRGGSTYYADSVKGRFTISRDNAKNTVYLQMNSLKPEDTAVYYCARRVTRYPYTTWDSAGDYWGQGTQVTVSS,high polyreactivity
13,QVQIEESGGGLVQAGGSIRLSCAASGRIFFLNAMGWYRQAPGKERELVAAISKSGGSTYYADSEKGRFTISRDNAKNTGFLQMNSLKPEDTAVYYCAARLHRFIRVDFGYDYWGQGTQVTVSS,high polyreactivity
14,QVQIEESGGGLVQAGGSLRLSCAASGFTFTYNDMGWNRQAPGKETEFVAAISSTGGSTYYADSVKGRFTISRDNAKNTVYLQMNSLKPEDTAVYYCAAEDSWYWDAWFDYWGQGTQVTVSS,low polyreactivity
15,QVQIEESGGGLVQAGGSLRLSCAASGRIFSLNVMGWSRQAPRKERELVATIRGRGTSTYYADSVKGRFTISRDNAKNTVYLQMNSLKPEDTAVYYCAASGHGAYGYWGQGTQVTVSS,low polyreactivity
16,QVQIEESGGGLVQAGRSLRLSCAASGFIFGSNAMGWYRQAPGKETELVAAISRSGGSTYYADSVKGRFTISRDYAKNTVYVQMNSLKPEDTAVYYGASYLYKTRYLTEYDYWGHGTQVTVSS,high polyreactivity
17,QVQIEESRGGLVQAGGSLRLSCAASGRIIDRYAMGWSRPAPRKERELVAAISSGGRTYYADSVKGRFTISRDNAKNTVYLQMHSLKPEDTAVYYCNAVAYSLSGYNSWGQGTQVTVSS,high polyreactivity
18,QVQIEESRGGLVQAGGSLRLSCAASGRTFYYYAMGWYRQAPGKERELVAAISYRGGSTYYADSVKGRFTISRDNAKNTVFLQLNSLKPEDTAVYYCAKYPHPLKYPGYPSEFDYWGQGTQVSVSS,low polyreactivity
19,QVQILESGGGLVQAGGSLRVSCAASGSTFSYYAMGWYRQAPGKERELVAAIRSSGGSTYYADSVKGRFTISRDNAKNTVYLQMNSLKPEDTAVYYCAARRSVGYRRYDYWGQGTQVTVSS,high polyreactivity
20,QVQIVDSGGGLVQAGGSLRLSCAASGSTFKPYAMGWYRQAPGKERELVAAITFSGGSTYYADSVKGRFTISRDNAKNTVYLQMNSLKPEDTAVYDCAARAFKFNGYYYWGQGTQVTVSS,high polyreactivity
